Laboratory results from patent US20240369578A1 (NEURO BIO, published 2024).

Molecular target: T1, alpha-7 nicotinic receptor (human, UniProt P36544 23-502)
T1 construct: Endogenous receptor in human brain homogenate, captured by biotinylated BTX on SA-donor beads in the AlphaLISA; also called alpha-7 receptor
Assay: AlphaLISA of T14-alpha-7 complex in human hippocampal tissue lysate (biotinylated BTX on SA-donor beads, anti-T14 on acceptor beads)
Experimental: Samples were extracted from homogenized human brain tissue using PerkinElmer lysis buffer and the protein concentration determined using the BCA method. For 100 mg tissue homogenization, 1 mL of lysis buffer was used. Five cycles of 40 second pulse, and 10 second breaks, on a shielded homogenizer were used for each sample. Samples were centrifuged at […], 15000 rpm (15 minutes) for supernatants; these were diluted in PerkinElmer Assay buffer and used to measure T14-alpha-7 nicotinic receptor complexes in the presence of NBP14 (concentrations 0.065 μM-900 μM) with AlphaLISA following the manufacturer's protocol. The antibodies were biotinylated BTX on SA-donor beads and anti-rabbit T14 on acceptor beads; results read in an AlphaLISA Reader.

T1 sequence (P36544 23-502 limits assumed): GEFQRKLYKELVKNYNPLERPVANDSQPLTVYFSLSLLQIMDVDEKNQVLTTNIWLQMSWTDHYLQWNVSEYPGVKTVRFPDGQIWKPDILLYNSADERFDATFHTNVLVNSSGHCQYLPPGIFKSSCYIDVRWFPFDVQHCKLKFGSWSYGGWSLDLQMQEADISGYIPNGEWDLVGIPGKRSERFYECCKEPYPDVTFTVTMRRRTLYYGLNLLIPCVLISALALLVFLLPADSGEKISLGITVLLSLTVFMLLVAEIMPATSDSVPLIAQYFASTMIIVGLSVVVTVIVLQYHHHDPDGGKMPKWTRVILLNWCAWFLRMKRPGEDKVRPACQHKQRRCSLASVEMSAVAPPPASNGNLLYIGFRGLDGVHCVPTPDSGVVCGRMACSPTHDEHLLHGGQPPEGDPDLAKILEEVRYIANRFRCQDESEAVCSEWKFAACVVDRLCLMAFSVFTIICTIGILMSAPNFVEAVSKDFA

B1: T14 peptide (AChE-derived peptide, SEQ ID No:3) (peptide)
peptide: AEFHRWSSYMVHWK
notes: In the assays this was endogenous T14 in human brain tissue, CSF or plasma; Synthetic T14 served as the positive control and standard
- binding result: binds
